Results: the nanobody polyreactivity screen of Harvey et al. (2022)

Test: yeast display, Sf9 membrane polyspecificity reagent, FACS + sequencing; frameworks hold sequencing errors
How it was run: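 A synthetic nanobody library was expressed on Saccharomyces cerevisiae BJ5465 by galactose induction for 36–48 hours. The library was stained for 1 hour at 4 °C with 10% biotinylated, detergent-solubilized Sf9 membrane reagent and enriched with streptavidin microbeads before FACS. Low and high (top ~1%) gates were set on anti-HA fluorescence for expression and streptavidin fluorescence for reagent binding, and each polyreactivity label reflects the gate of origin.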

Sequence	polyreactivity (PSR sort gate)
QVQLVESGGGLVQAGGILRLSCAASGSTFAQNAMGWYRQAPGKEREFVAAITGTVGSTYYADSVKGRFTISRDNAKNTVYLQMNSLKPEDTAVFYCNTRGFNGRVYPYDYWGQGTQVTVSS	low polyreactivity
QDQHVESGGGLVQAGGSLRLICDASGGIFGTNDMGWYRQAPGKERELVAAITSDSGATYYADSVKGRFTISRDNAKNTVYLQMNSLKPEDTAVYYCAAEDGPWFYRYGYWGQGTQVTVSS	low polyreactivity
QVQLVESGGGLVQAGGSLRLSCAASGFTFARYAMGWYRQAPGKERELVAAISWTGARTYYADSVKGRFTISRDNAKNTVYLQMNSLKPEDTAVYYCNAVSGSSNFDYWGQGTQVTVSS	high polyreactivity
QVQLVESGRGLVQAGGSLRLSCAASGIIFRLNAMGWYRQAPGKERELVAAILRRGGSTYYADSVKGRFTISRDNAKNTVYFQMNSLKPEDTAVDYCAKDPHGSDFGYWGQGTQVTVSS	low polyreactivity
QVQLVESGGGLVQAGGSLRLICASSGCTFGDYAMGWYRQEPGKERELVAAITIGGITTYADSVKGRFTISRDTAKYTVYLQRNSLKPEDTAVYYCAAAERGHWDDYWGQGTQVTVSS	low polyreactivity
QVQLVESGGGLVQAGGSLRLSCAASGRIFAYYAMGWYRQAPGKERELVAAINSNGGSTYYADSVKGRFTISRDNAKNTVYLQLNSLKPEDTAVYYCAAGARYKMGYWGQGTQVTVSS	high polyreactivity
QVHLVETVGGLVKAGGSLRLSFAASGSIFTSNDMGWYRQEPGKERELVAAISSGGRTYYADSVKGRFTISRDNAKNTVYLQMNSLKPEYTAVYYCAVDPHLYALRGAVYYWGQGTQVTVSS	low polyreactivity
QVQLVESGGGLVQAGGSLRLSCAASGFIFTYYAMGWYRQAPGKERELVAAITVRGGSTYYADSVKGRFTISRDNAKNTVYLQMNSLKPEDTGVYYCNTVHGLWRRYNYWGQGTQVTVSS	high polyreactivity
QVQLVESGGGLVQAGGSLRLSCAASGITFWVYAMGWYRQAPGKERELVAAISRRGGSTSYADSVKGRFTISRDNAKNTVYLQMNSLKPEDTAVYYCAATTYTHPYGYWGQGTQVTVSS	high polyreactivity
QVQLVESVGGLVQAGGSLRLSCAASGFTFSSYSMGWYRQAPGKERELVAAITISGGRTYYADSVKGRFTISRDNAKNTVYLQMNSLKPEDTAVYYCAARYVEGQNHYGYRGQGTQVTVSS	high polyreactivity
QLQLEESGGGLVQAGGSLRLSSAASGRTFYYYAIGWYRQAPGKERELVAAISRGGSTYYADSVKGRFTISRDNAKITVYLQMHSLKPEDTAVYYCAAVLRPDRYDYWGQGTQVTVSS	high polyreactivity
QVQLVESGGGLVQAGGSLRLSCAASGSILTGNAMGWYRPAPGKERELVAAISAGGTRTYYADSVKGRFTISRDNAKNTVYLQMNSLKPEDTAVYYCAADSSKRIGYDYWGQGTQVTVSS	high polyreactivity
QVQLVESGGGLVQAGGSLRLSCAASGFTFWTYAMGWYRQAPGKERELVAAIDSGGSTYYADSVKGRFTISRDNAKNTVFLQMNSLKPEDTAVYYCIAGPSVTSGYDYDYWGQGTQVTVSS	low polyreactivity
QVQLVESGGGLVPAGGSLRLSCAASGLTFTTYAMGWYRQAPGKERELVAANSNSGATTYYADSVKGRFTISRDNAKNTVYLQMNSLKREETAVYYCAATSYTATWRYYYWGQGTQVTVSS	high polyreactivity
QVQLVESGGGLVQAGGSLRLSCAASGSIFVYYAMGWYRQAPGKERELVAAISSGGRTYYADSVKGRFTISRDNAKNTVSLQMNSLKPEDTAVYYCNAVHYFQYGYYSWGQGTQVTVSS	high polyreactivity
QVQLLESGGGLVQAGGSLRLSCAASGRTFRYYAMGWYRQAPGKERELVAAITANGGSTYYADSVKGRFTISRDNAKNTVYLQMNSLKPEDTAVYYCAAKYNTKLYYWGQGTQVTVSS	high polyreactivity
QVDLVESAGGLVQAGGSLRLSCAASGSIFPGYTMGWYRQAPGQERELVAAISRRGGSTYYADSVKGRFTISRDNAKNTVYLQMNSLIPEDTAVYYCAIVPDYRFEYWGQGSQVTVSS	high polyreactivity
QVQLVESGGGLVQAGGSLRLSCAASGSTFDTYAMGWSRPAPGKERELVAAITSGSSTNYADSVKGRFTISRDNAKNTVYLQMNSLKPEDTAVYYCAALGYNVSSRGYYYWGQGTQVTVSS	low polyreactivity
QVQLVESGGGLVQAGGSLRLSCSASGSIFRFNAKGWYRQAPGKERELVASSRWDTASTYYADSVKGRFTISRDNAKNTVYLQMNSLKPEDTAVYYCNAGRPRFYRSRWYYYGYGYWGQGTQVTVSS	high polyreactivity
QVQLVESGGGLVQAGGSLRLSCAASGRIFASNAMGWYRPAPGKERELVAAIDQGGGSTYYADSVKGRFTISRDNAKNTVYLQMNSLKPEDTAVYYCAADYITAYPRLYNYWGQGTQVTVSS	low polyreactivity
QVQLVESGGGLVQAGGSLRLSCAGSGIIFHLYAMGWYRQAPGKERELVAAISWNGSSTYYADSVKGRFTISRDNAKNTVYLQMNSLKPEDTAVYYCAASYGYFEDYGYWGQGTQVTVSS	low polyreactivity
QVQLVESGGGLVQAGGSLRLSCAASGSIFGTYAMGWYRQAPGKEREFVAAISWSDGSTYYADSVKGRFTISRDNAKNTVYLQMNSLNPEDTAVYYCAVRRVGSIYIDRYIYVVADYDYWGQGTQVTVSS	low polyreactivity

Sequence	polyreactivity (PSR sort gate)
QVQLVETGGGLVQAGGSLRLSCAASGSIFYPNAMGWYRQAPGKERELVAAISSSGGTNYADSVKGRFTISRDNAKNTVYLQMNSLKPEDTAVYYCNARDKVRYRYSRMDYWGQGTQVTVSS	low polyreactivity
QVHLVESGGGLVQAGGSLRLSCAASGSICNPYAMGWYRQAPGKEGELVAAINRGGTSTYYADSVKGRFTISRDNAKNNVYLQMNSLKPEDTAVYYCNADYPYYEDGDTVRDDYWGQGTQVTVSS	low polyreactivity
QVQLVESGGGLVQAGGSLRLSCAASGSTFPSYAMGWYRQAPGKERELVAAITRSGGRTYYADSVKGRFTISRDNAKNTVYLQMNSLKPEDTAVYYCAADLGRNYDYWGQGTQVTVLS	low polyreactivity
QVQLVESGGGLVQAGGSLRLSCAASGSIFRGNAMGWYRQAPGKERELVAAITSRGTSTYYADSVKGRFTISRDNAKNTVYLQMNSLKREDTAVYYCAARGYYLYWGQGTQVTVSS	high polyreactivity
QVQLVESGGRLVQAGGSLRLSCAASGRIFYNYSMGWYRQAPGKERELVATIRYRGGSTYYADSVKGRFTISRDNAKNTVYLQMNSLKPEDTAVYYCAARFNYNRDYPYYSWGQGTQVNVSS	high polyreactivity
QVQLVESGGGLVQAGGSLRLSSAASGRTFVNYTMGWYRQAPGIERELVAAITSSGGSTYYADSVKGRFTISRDNAKNTVYLQMNSLKPEDTAVYYCAAAKFDLSFWLYYWGQGTQVTVSS	low polyreactivity
QVQLVESGGGLVQAGGSLRLSCAASGFTFPWYAMGWYRQAPGKERELVATITRGGSTYYADSVKGRFTISRDNAKNTVYLQMNSLKPEDTAVYYCAVTYWRYHSYSPYDYWGQGTQVTVSS	high polyreactivity
QFQLVESGGGVVQAGGSLRLSCAASGYTFYIYARGWYRQAPWKERELVAAISWTDGSTYYADSVKGRFTISRDNAKNTVYLQMNSLKPEDTAVYYCAKTSLYAGAKEYDYWGQGTQVTVSS	low polyreactivity
QVQLVESGGGLVQAGGSLRLSCAASGRTFVYNAMGWYRQAPGKERELVAAIDGGGDRTYYADSVKGRFTISRDNAKNTVYLQMNSLKPEDTAVYYCNARWQEPLKYDYWGQGTQVTVSS	low polyreactivity
QVQLVESGGGLVQAGGSLRLSCAASGRNFRRYAMGWYRQAPGKERELVATISGSGTSTYYADSVKGRFTISRDNAKNTVYLQMNSLKPEDTAVYYCAAGNPYYRTSQYYHWGQGTQVTVSS	high polyreactivity
QVQLVESGGGLVQAGGSLRLSCAASGYTFNPYVMGWYSQAPGKERELVAAISSGGSTSYADSVKGRFTISRDNAKNTVYLQMNSLKPEDTAVYYCAADWSYYYSRNYESDYWGQGTQVTVSS	low polyreactivity
QVQLVESGGGLVQAGGSLRLSCAASGRTFYRYAMGWYRQAPGKERELVAGITSGGITYYADSVKGRFTISRDNAKNTVYLQMNSLKPEDTAVYYCAASYAFFSYRAWYTSGNEYWGQGTQVTVSS	high polyreactivity
QVQLVESGGGLVQAGGSLRLSCAASGSTFKQYAMGWYRQAPGKERELVAAISTIGGSTYYADSVKGRFTISRDNAKITVYLQMNSLKPEDTAVYYCAAEYWYIWPYNYWGLGTQVTVSS	high polyreactivity
QVQLVESGGGLVHAGGSLRLSCAASGFTFGSNAMGWYRQAPGKERELVAAISSRGGRTYYADSVKGRFTISRDNAKNTVYLQMNRLKPDDTAVYYCNADATVAWREQEYEYWGQGTQVSVSS	high polyreactivity
QVQLVESGGGLVQAGGSLRLSCAASGSISWYYAMGWYRQAPGKEWEGVAAISDSGGDTYYADSVKGRFTISRDNAKNTVYLQMNSLKPEDTAVYYCAAQYRGSYRTTYDYWGQGTQVTVSS	low polyreactivity
QVQLVESGGGLVQAGGSLRLSCAASGRIFFYYAMGWYRQAPGKERELVAAINRGGRTYYADSVKGRFTISRDNAKNTVYLQMNSLKPEDTAVYYCAADGQTAKSNFDYWGQGTQVTVSS	low polyreactivity
QVQLVESGGGLVQAGGSLRLSCAASGITFPSYVMGWYRQAPGKEREFVAAITGSAGSTYYADSVKGRFTISRDNAKNTVYLQMNSLKPEDTAVYYCAARVRYVNPKYYYWGQGTQVTVSS	high polyreactivity
QVQLVESGGGLVQAGGSLRLSCAASGRTFGLYAMGWYRQAPGKERELVAAISRSGGRTYYADSVKGRFTISRDNAKNTVYLQMNSLKPEDTAVYYCSTYYDRASYRYDYWGQGTQETVSS	high polyreactivity
QVQLVESGGGLVQAGGSLRLSCAASGLTFYYYVMGWYRQAPGKERELVAAISSSGGNTYYADSVKGRFTISRDNAKNTVYLQMNSLKPEDTAVYYCAAGQKRTLDNYWGQGTQVTVSS	high polyreactivity
QVQLVESGGGLVQAGGSLRLSCAASGRTFSNYVMGWSRQAPGKERELVAAITYSGGSTYYADSVKGRFTISRDNAKYTVYLQMNSLKPEDTAVYYCARRWGGSGYYYWGQGTQVTVSS	high polyreactivity
QVQLVDSGGGLVQAGGSLRLSCAASGYIDGTYAMGWYRQAPRKERDLVASISSSGGSTYYADSVNGRFTISRDNAKNTVYLQMNSLKPEDTAVYYCNAERKIIAYLWWYDYWGQGTQVTVSA	low polyreactivity
